According to patent publication US20120053125:

Legend:
human I-1 (S67D/T75D) = system: T1, human I-1 (S67D/T75D)
T1 sequence: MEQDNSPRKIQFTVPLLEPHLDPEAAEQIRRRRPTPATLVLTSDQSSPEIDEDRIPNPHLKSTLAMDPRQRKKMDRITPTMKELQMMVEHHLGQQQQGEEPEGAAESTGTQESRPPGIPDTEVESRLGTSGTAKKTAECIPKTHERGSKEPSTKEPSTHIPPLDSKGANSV

[1] = system: human phosphatase inhibitor-1 (I-1) wild type, dephosphorylated
[2] = system: human I-1 (T75A), unphosphorylated
[3] = system: human I-1 (S67A), unphosphorylated

Substance | 32P incorporation upon PKA incubation, decrease against wild-type (human I-1 (S67D/T75D)) | 32P incorporation upon PKC-α incubation (human I-1 (S67A/T75A)) | stoichiometry of phosphorylation at 45 min [1] | 32P incorporated per protein at 45 min, percent of wild type [2] | stoichiometry of phosphorylation at 45 min [2] | 32P incorporated per protein at steady state (20-45 min), percent of wild type [3] | stoichiometry of phosphorylation at 45 min [3]
Protein Kinase A (PKA, cAMP-dependent protein kinase), Upstate Biotechnology | the double mutant incorporated 29% less radioactivity than the wild-type |  |  |  |  |  | 
Protein Kinase C alpha (PKC-α), Upstate Biotechnology |  | mutation of both Ser-67 and Thr-75 to Ala abolishes ^32P-incorporation into I-1 | I-1 wild-type was phosphorylated by PKC-α for 45 min to a stoichiometry of 0.88 mol Pi/mol protein | I-1 (T75A) incorporated 33.8±12.7% of the levels in wild type (100%) | the incorporation of Pi into I-1(S67A) and I-1(T75A) were reduced to 0.35 and 0.30 mol Pi/mol protein, respectively | I-1 (S67A) incorporated 40±8.6% of the radioactivity levels present in wild types (100%) | the incorporation of Pi into I-1(S67A) and I-1(T75A) were reduced to 0.35 and 0.30 mol Pi/mol protein, respectively
